Data: patent US20170137783A1

Biological target: mesothelin-Fc fusion protein, immobilized on beads (UniProt Q13421)
Assay: cell-based or functional assay

Sequence of UniProt Q13421 (Q13421 other isoform, or with tags, fused parts or gaps limits assumed): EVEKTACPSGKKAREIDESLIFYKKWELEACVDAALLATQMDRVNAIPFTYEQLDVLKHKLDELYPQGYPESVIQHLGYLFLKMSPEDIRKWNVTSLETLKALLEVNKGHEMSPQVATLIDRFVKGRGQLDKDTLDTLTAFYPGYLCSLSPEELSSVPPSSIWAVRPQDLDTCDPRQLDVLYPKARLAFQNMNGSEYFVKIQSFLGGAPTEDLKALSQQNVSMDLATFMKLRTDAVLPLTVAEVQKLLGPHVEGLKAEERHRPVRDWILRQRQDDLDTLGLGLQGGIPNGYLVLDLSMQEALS

Total Population Doublings (donor 1) (population doublings)	Total Population Doublings (donor 2) (population doublings)	Total Population Doublings (donor 3) (population doublings)	Substance
5.8	6.9	6	mesothelin-specific 28z CAR (SS1 scFv, CD28 and CD3z signaling domains) (receptor)
8.8	8.4	8.4	mesothelin-specific BBz CAR (SS1 scFv, 4-1BB and CD3z signaling domains) (receptor)
